What all share (conditions): Homo sapiens
For data set [1], the system named is C[C@H](Cn1cnc2c(N)ncnc21)OCP(=O)(O)O. The experiment in a line: (§1) Activity of recombinant AK2 (unknown origin) assessed as ADP formation by spectroscopic pyruvate kinase/lactate dehydrogenase coupled assay.
The subject of data set [2] is Nc1ncnc2c1ncn2-c1ccc(CO)o1. Described as §1.
Data set [3] concerns Nc1ncnc2c1ncn2-c1ccc(COCP(=O)(O)O)o1. The description is as §1.
For data set [4], the system named is Nc1ncnc2c1ncn2CCOCP(=O)(O)O. The data set is described as §1.
The test system of data set [5] is Nc1ncnc2c1ncn2[C@@H]1O[C@H](COP(=O)(O)O)[C@@H](O)[C@H]1O. Described as §1.
The test system of data set [6] is Nc1ncnc2c1ncn2[C@H]1C[C@H](O)[C@@H](COP(=O)(O)O)O1. Described as §1.
Data set [7] deals with C[C@H](Cn1cnc2c(N)ncnc21)OCP(=O)(O)O. The experiment in a line: (§2) Ratio of Kcat to Km for recombinant AK2 (unknown origin).
Data set [8] concerns Nc1ncnc2c1ncn2-c1ccc(CO)o1. The description is as §2.
Data set [9] relates to Nc1ncnc2c1ncn2-c1ccc(COCP(=O)(O)O)o1. Described as §2.
For data set [10], the system named is Nc1ncnc2c1ncn2CCOCP(=O)(O)O. Described as §2.
In data set [11] the test system is Nc1ncnc2c1ncn2[C@@H]1O[C@H](COP(=O)(O)O)[C@@H](O)[C@H]1O. Described as §2.
The test system of data set [12] is Nc1ncnc2c1ncn2[C@H]1C[C@H](O)[C@@H](COP(=O)(O)O)O1. The description is as §2.

For “Adenylate kinase 2, mitochondrial (Homo sapiens) (from UniProt P54819)”, the Km (in general, the substrate concentration at which the rate is half of its maximum) in data set [1] is 3000 µM; in data set [2] it was “Not Active”; in data set [3], 420 µM; in data set [4] it was 6000 µM; in data set [5], 380 µM; in data set [6], 210 µM. Further, the turnover number (kcat) – broadly, the maximal rate divided by the concentration of active sites – is 2.4 s⁻¹ in data set [1]; “Not Active” in [2]; 1.06 s⁻¹ in data set [3]; 1.5 s⁻¹ in [4]; 80 s⁻¹ in [5]; 110 s⁻¹ in data set [6]. The kcat/Km in data set [7] was 800 M⁻¹ s⁻¹; in [8], “Not Active”; in data set [9] it was 0.025 ×10⁶ /M/s; in [10] it was 250 ×10⁶ /M/s; in [11] it was 0.21 ×10⁶ /M/s; in data set [12], 0.5 ×10⁶ /M/s.

The values above are taken from ChEMBL document CHEMBL3352481, “Synthesis of {[5-(adenin-9-yl)-2-furyl]methoxy}methyl phosphonic acid and evaluations against human adenylate kinases” (Bioorg Med Chem Lett, 2014).
